Data reported in the supplement of paper PMC10567573.

B1: FCHO1 (parent)
chain: FTSSPSPFSSSSPENVEDSGLDSP

Variants of: B1
Experiment: protein stability index of a GFP-peptide fusion (GPS, HEK-293T) (PSI 1-6); higher = more stable
Details: c terminus: a fixed tail appended
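Also: lentivirally expressed fusions sorted by FACS into six bins by GFP to DsRed ratio, PSI derived from sequencing read proportions per bin multiplied by bin number.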

Point of comparison: FTSSRSPFSSSSPENVEDSGLDSP [P5R], protein stability index 2.08. Against it:
- FTSSPSFFSSSSPENVEDSGLDSP [P7F] — lower, 1.93
- FTSSPSAFSSSSPENVEDSGLDSP [P7A] — higher, 2.25
- FTSSPSTFSSSSPENVEDSGLDSP [P7T] — higher, 2.38
- FTSSPSVFSSSSPENVEDSGLDSP [P7V] — higher, 2.24
- FTSSPSMFSSSSPENVEDSGLDSP [P7M] — higher, 2.1
- FTSSPSNFSSSSPENVEDSGLDSP [P7N] — lower, 1.96
- FTSSPSCFSSSSPENVEDSGLDSP [P7C] — lower, 1.56
- FTSSPSGFSSSSPENVEDSGLDSP [P7G] — higher, 2.89
- FTSSPSRFSSSSPENVEDSGLDSP [P7R] — higher, 2.09
- FTSSPSQFSSSSPENVEDSGLDSP [P7Q] — lower, 1.86
- FTSSPSKFSSSSPENVEDSGLDSP [P7K] — higher, 2.28
- FTSSPSHFSSSSPENVEDSGLDSP [P7H] — higher, 2.12
- FTSSPSSFSSSSPENVEDSGLDSP [P7S] — higher, 2.25
- FTSSPSLFSSSSPENVEDSGLDSP [P7L] — lower, 1.91
- FTSSPSEFSSSSPENVEDSGLDSP [P7E] — higher, 2.79
- FTSSPSIFSSSSPENVEDSGLDSP [P7I] — lower, 1.74
- FTSSPSDFSSSSPENVEDSGLDSP [P7D] — higher, 3.19
- FTSSPSYFSSSSPENVEDSGLDSP [P7Y] — higher, 2.49
- FTSSFSPFSSSSPENVEDSGLDSP [P5F] — higher, 2.32
- FTSSLSPFSSSSPENVEDSGLDSP [P5L] — lower, 1.91
- FTSSGSPFSSSSPENVEDSGLDSP [P5G] — lower, 2.06
- FTSSVSPFSSSSPENVEDSGLDSP [P5V] — higher, 2.17
- FTSSHSPFSSSSPENVEDSGLDSP [P5H] — higher, 2.23
- FTSSQSPFSSSSPENVEDSGLDSP [P5Q] — higher, 2.16
- FTSSTSPFSSSSPENVEDSGLDSP [P5T] — lower, 1.69
- FTSSISPFSSSSPENVEDSGLDSP [P5I] — lower, 1.81
- FTSSSSPFSSSSPENVEDSGLDSP [P5S] — higher, 2.67
- FTSSDSPFSSSSPENVEDSGLDSP [P5D] — higher, 2.43
- FTSSNSPFSSSSPENVEDSGLDSP [P5N] — higher, 2.09
- FTSSYSPFSSSSPENVEDSGLDSP [P5Y] — lower, 1.9
- FTSSKSPFSSSSPENVEDSGLDSP [P5K] — higher, 2.31
- FTSSASPFSSSSPENVEDSGLDSP [P5A] — lower, 1.88
- FTSSESPFSSSSPENVEDSGLDSP [P5E] — lower, 2.04
- FTSSWSPFSSSSPENVEDSGLDSP [P5W] — lower, 1.87
- FTSSMSPFSSSSPENVEDSGLDSP [P5M] — lower, 2.02
- FTSSCSPFSSSSPENVEDSGLDSP [P5C] — lower, 1.96
- FTSSPSPFSSSHPENVEDSGLDSP [S12H] — higher, 3.01
- FTSSPSPFSSSEPENVEDSGLDSP [S12E] — lower, 1.7
- FTSSPSPFSSSDPENVEDSGLDSP [S12D] — higher, 2.53
- FTSSPSPFSSSLPENVEDSGLDSP [S12L] — higher, 2.27
- FTSSPSPFSSSCPENVEDSGLDSP [S12C] — higher, 2.46
- FTSSPSPFSSSGPENVEDSGLDSP [S12G] — higher, 2.36
- FTSSPSPFSSSMPENVEDSGLDSP [S12M] — lower, 1.99
- FTSSPSPFSSSAPENVEDSGLDSP [S12A] — lower, 1.74
- FTSSPSPFSSSIPENVEDSGLDSP [S12I] — higher, 2.12
- FTSSPSPFSSSKPENVEDSGLDSP [S12K] — lower, 1.56
- FTSSPSPFSSSFPENVEDSGLDSP [S12F] — higher, 2.65
- FTSSPSPESSSSPENVEDSGLDSP [F8E] — higher, 5.2
- FTSSPSPVSSSSPENVEDSGLDSP [F8V] — higher, 4.45
- FTSSPSPDSSSSPENVEDSGLDSP [F8D] — higher, 5.5
- FTSSPSPKSSSSPENVEDSGLDSP [F8K] — higher, 5.34
- FTSSPSPSSSSSPENVEDSGLDSP [F8S] — higher, 5.08
- FTSSPSPHSSSSPENVEDSGLDSP [F8H] — higher, 5.05
- FTSSPSPQSSSSPENVEDSGLDSP [F8Q] — higher, 4.95
- FTSSPSPASSSSPENVEDSGLDSP [F8A] — higher, 5.11
- FTSSPSPRSSSSPENVEDSGLDSP [F8R] — higher, 4.29
- FTSSPSPISSSSPENVEDSGLDSP [F8I] — higher, 4.48
- FTSSPSPMSSSSPENVEDSGLDSP [F8M] — higher, 4.53
- FTSSPSPYSSSSPENVEDSGLDSP [F8Y] — lower, 2.04
- FTSSPSPLSSSSPENVEDSGLDSP [F8L] — higher, 3.74
- FTSSPSPTSSSSPENVEDSGLDSP [F8T] — higher, 5.39
- FTSSPSPCSSSSPENVEDSGLDSP [F8C] — higher, 3.77
- FTSSPSPGSSSSPENVEDSGLDSP [F8G] — higher, 4.72
- FTSSPSPPSSSSPENVEDSGLDSP [F8P] — higher, 4.95
- FTSSPSPNSSSSPENVEDSGLDSP [F8N] — higher, 4.9
- FTKSPSPFSSSSPENVEDSGLDSP [S3K] — higher, 3.48
- FTRSPSPFSSSSPENVEDSGLDSP [S3R] — higher, 3.59
- FTPSPSPFSSSSPENVEDSGLDSP [S3P] — higher, 2.52
- FTFSPSPFSSSSPENVEDSGLDSP [S3F] — higher, 2.6
- FTQSPSPFSSSSPENVEDSGLDSP [S3Q] — higher, 2.42
- FTVSPSPFSSSSPENVEDSGLDSP [S3V] — lower, 2.05
- FTCSPSPFSSSSPENVEDSGLDSP [S3C] — lower, 2.01
- FTESPSPFSSSSPENVEDSGLDSP [S3E] — higher, 2.79
- FTYSPSPFSSSSPENVEDSGLDSP [S3Y] — higher, 2.85
- FTMSPSPFSSSSPENVEDSGLDSP [S3M] — higher, 2.38
- FTASPSPFSSSSPENVEDSGLDSP [S3A] — higher, 2.26
- FTDSPSPFSSSSPENVEDSGLDSP [S3D] — higher, 2.7
- FTTSPSPFSSSSPENVEDSGLDSP [S3T] — lower, 1.87
- FTNSPSPFSSSSPENVEDSGLDSP [S3N] — higher, 2.71
- FTGSPSPFSSSSPENVEDSGLDSP [S3G] — lower, 1.38
- FTHSPSPFSSSSPENVEDSGLDSP [S3H] — higher, 2.32
- FTWSPSPFSSSSPENVEDSGLDSP [S3W] — higher, 2.61
- FTLSPSPFSSSSPENVEDSGLDSP [S3L] — higher, 3.8
- FTISPSPFSSSSPENVEDSGLDSP [S3I] — higher, 3.05
- FTSSPSPFRSSSPENVEDSGLDSP [S9R] — lower, 1.76
- FTSSPSPFWSSSPENVEDSGLDSP [S9W] — higher, 2.71
- FTSSPSPFDSSSPENVEDSGLDSP [S9D] — higher, 2.67
- FTSSPSPFKSSSPENVEDSGLDSP [S9K] — lower, 1.89
- FTSSPSPFMSSSPENVEDSGLDSP [S9M] — lower, 2.02
- FTSSPSPFISSSPENVEDSGLDSP [S9I] — higher, 2.91
- FTSSPSPFESSSPENVEDSGLDSP [S9E] — higher, 2.83
- FTSSPSPFQSSSPENVEDSGLDSP [S9Q] — lower, 2.06
- FTSSPSPFLSSSPENVEDSGLDSP [S9L] — higher, 2.17
